The test system of one experiment is cumulus cells. In words: Staurosporine-induced cumulus cell apoptosis in OOX (TUNEL). The experiment is classed as cell-based, Bovine. Particulars: 10% BMP-15 or 10 ng/ml BMP-6. On the procedure: CC apoptoic DNA was detected using TUNEl (Roche Diagnostic, Penzberg, Germany) according to the manufacturer's instructions. […] Complexes were then permeabilized in 0.11/u Triton X-100 in 0.1% sodium citrate for 1 hour at room temperature and washed 3 times in PBS/BSA. The complexes were then incubated in fluorescein-conjugated dUTP and terminal deoxynucleotide transferase (TUNEl reagents, Roche) for 1 hour at 37° C. in the dark. Positive controls were incubated in DNAse 1 (0.005 U/µl), which cleaves all DNA, for 20 minutes at room temperature and washed twice in PBS/BSA before TUNEl. Negative controls were incubated in fluorescein-dUTP in the absence of TdT. After TUNEl, complexes were washed twice in PBS/BSA and counterstained with propidium iodide 0.5 μg/ml (PI) plus RNase A (0.1 mg/ml) for 1 hour at room temperature in the dark to label all nuclei. Complexes were then washed twice in PBS/BSA and mounted with slight coverslip compression in VectaShield anti-bleaching solution (Vector labs, Burlingame, Calif.), and stored in the dark at 4° C. for confocal analysis. […] These optical section images were acquired and saved as independent colour channels (green, apoptotic cumulus fluorescence and red, nuclear cumulus fluorescence). The captured images were then processed in Scanalytics IPlab software Version 3.6. (Scanalytics, Fairfax, Va.). Quantification of CC number (for each colour channel) was independently measured using a macro script utilizing an auto segmentation filter for each optical section percentile (3 optical “z”-plane sections for each complex). A percentage of apoptotic nuclei were generated for each slice and the three percentile values were then averaged to achieve a representation of the total apoptotic nuclei percentage for the whole complex. These processes were repeated separately on each individual complex. A preliminary experiment was conducted to determine the apoptotic effect of staurosporine on bovine CC, which induced apoptosis in a dose-dependent manner (range; 0.1-100 μM, data not shown). The aim of this experiment was to determine whether OSF could prevent CC from undergoing apoptosis induced by staurosporine. OOX alone or co-cultured with 35 DO, 10 ng/ml BMP-6 or 10% (v/v) BMP-15, and were then exposed to either 0.1 μM or 1.0 μM staurospourine for the last 6 hours of the 24 hour incubation period. Three replicates of this experiment were carried out using 10 OOX per treatment group per replicate experiment.

In experiment [1] the test system is cumulus expansion of oocytectomised (OOX) complexes. The experiment is described as follows: FSH-induced cumulus expansion score of OOX complexes. The experiment is classed as cell-based, mice. Particulars: score 0 (no expansion) to +4 (maximum expansion); mean ±SEM; OOX complexes with FSH. Here is the method: Members of the TGF-β superfamily are prime candidates for the mouse cumulus expansion-enabling factor (CEEF). This study was conducted to examine TGF-β superfamily processes regulating cumulus expansion. COCs were collected from eGG-primed mice and the oocyte microsurgically removed to generate oocytectomised (OOX) complexes. […] The type-I receptors for GDF9 and […] are ALK5 and ALK4, respectively. We tested the ability of an ALK4/5/7 kinase inhibitor to neutralize cumulus expansion.

The subject of experiment [2] is Smad 3-responsive CAGA-luciferase reporter. The experiment is described as follows: Smad 3-responsive CAGA-luciferase reporter in mural granulosa cells from large antral follicles. The experiment is classed as cell-based, marmoset monkey, Callithrix jacchus. Particulars: 48 h; 0.5 ng/ml TGFβ1, 88-265 ng/ml GDF9, 50 ng/ml BMP7 or 60 mouse oocytes. On the procedure: (§1) FIGS. 18A and 18B show the activation of the TGF-β signalling pathway by GDF9 and oocytes. MGC from large follicles were transiently transfected with either a Smad 3-responsive CAGA-luciferase reporter construct (A) or a Smad 1-responsive BRE-luciferase reporter construct (B). Cells were subsequently left untreated, treated with 0.5 ng/ml TGFβ1, 88-265 ng/ml GDF9, 50 ng/ml BMP7 or co-cultured with 60 mouse oocytes. Cells were cultured for 48 h after which time luciferase activity was measured from cell extracts. Bars represent means+/− SEM from 3 replicate experiments expressed as a fold change relative to control.
(§2) Luciferase reporter constructs responsive to specific phosphorylated Smads were used to detect the activation of mural GC Smad proteins by recombinant GDF9 Mural GCs were collected and processed as described above, except cells were given a final wash in DMEM(MP Biomedicals, Seven Hills, Australia)+2% FCS (Trace Biosciences, Castle Hill, Australia). Following the final wash, cells were transferred to individual wells of a 96-well plate (Falcon) and cultured at 1.6×10^5 cells/ml. After 4 hours of culture, cells were transiently transfected with 50 ng of luciferase reporter construct DNA using Fugene 6 (Roche Diagnostics, Castle Hill, Australia). 18 hours after transfection, medium was aspirated from cells and replaced with DMEM supplemented with 0.1% FCS. Various ligands were added to cells at this point (see below) and the culture period extended for a further 48 hours. Experiments were terminated by removing media from wells and freezing plates at −20° C. […]
(§3) Seven adult female marmosets were primed with […] for 6 days, whole ovaries were removed on day 7, follicles manually excised, and GC were then collected from 3 size classes: periantral (PA; 0.42-0.66 mm), small antral (SA; 0.66-1.5 mm) and large antral (LA; >1.5 mm). […] In order to determine the effects of GDF9 on marmoset GC proliferation, we employed a GC bioassay whereby after 24 h ^3H-thymidine incorporation is assessed as an indicator of DNA synthesis and cellular proliferation. […]

Experiment [3] has as its system Smad 1-responsive BRE-luciferase reporter. In words: Smad 1-responsive BRE-luciferase reporter in mural granulosa cells from large antral follicles. The conditions noted are these: 48 h; 0.5 ng/ml TGFβ1, 88-265 ng/ml GDF9, 50 ng/ml BMP7 or 60 mouse oocytes. The experiment is classed as cell-based, marmoset monkey, Callithrix jacchus. On the procedure:
as §1, §2, §3
For orientation: In a reporter assay the amount or activity of a reporter protein is the signal.

The text below walks through data of patent US8530235B2, “Medium that supports culture of an oocyte and modulation of granulosa cell apoptosis” (Adelaide Research & Innovation Pty Ltd., priority 2005, dated 2013).

B1: BMP-15: Recombinant ovine BMP-15 produced in-house in transfected 293H cells, partially purified by hydrophobic interaction chromatography; dosed as % v/v (protein, UniProt Q9MZE2 269-393, looked up)
Bone morphogenetic protein 15: QAGSIASEVPGPSREHDGPESNQCSLHPFQVSFQQLGWDHWIIAPHLYTPNYCKGVCPRVLHYGLNSPNHAIIQNLVSELVDQNVPQPSCVPYKYVPISILLIEANGSILYKEYEGMIAQSCTCR
For the molecule B1, the “CC apoptosis of treated OOX exposed to staurosporine” value is given as 17% in the experiment on cumulus cells (0.1 μM staurosporine) and 25% with cumulus cells (1 μM staurosporine).

B2: GDF-9: Recombinant mouse GDF-9 produced in-house in transfected 293H cells, partially purified by HIC (protein, UniProt Q07105 307-441, looked up)
Growth/differentiation factor …: GQKAIRSEAKGPLLTASFNLSEYFKQFLFPQNECELHDFRLSFSQLKWDNWIVAPHRYNPRYCKGDCPRAVRHRYGSPVHTMVQNIIYEKLDPSVPRPSCVPGKYSPLSVLTIEPDGSIAYKEYEDMIATRCTCR
The molecule B2 had a cumulus expansion score in experiment [1] of 3.7±0.1. The “CAGA-luciferase activity above control levels” value in experiment [2] amounted to 5 fold. The “BRE-luciferase activity compared to control levels” value in experiment [3] is given as “not activated”.
